These results are taken from US9040462 (RIGEL PHARMACEUTICALS, dated 2015).

The target in the test is Tet DNA binding domain only (UniProt P04483 1-207). The test is described as follows: mammalian two-hybrid luciferase reporter, Phoenix cells. On the technique in general: In a reporter assay the amount or activity of a reporter protein is the signal.
Sequence of Tet DNA binding domain only (P04483 whole entry, the tested form may be a part): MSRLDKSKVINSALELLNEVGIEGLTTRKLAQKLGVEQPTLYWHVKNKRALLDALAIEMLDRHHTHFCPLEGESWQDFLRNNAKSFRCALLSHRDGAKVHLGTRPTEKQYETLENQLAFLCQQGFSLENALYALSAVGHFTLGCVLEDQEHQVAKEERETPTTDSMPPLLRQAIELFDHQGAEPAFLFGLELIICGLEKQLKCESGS

B1: VP16 activation domain only (other)
chain: APPTDVSLGDELHLDGEDVAMAHADALDDFDLDMLGDGDSPGPGFTPHDSAPYGALDMADFEFEQMFTDALGIDEYGG
notes: also called pVACT
For the molecule B1, the binding result is reported as “no binding”.
